Laboratory results reported in the nanobody polyreactivity screen of Harvey et al. (2022).

Assay: yeast display, Sf9 membrane polyspecificity reagent, FACS + sequencing; frameworks hold sequencing errors
Outline: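 Using colony PCR, genes from sorted yeast display clones were amplified, then sequenced on MiSeq at 2 × 250 and filtered by CDR length. The clones had been stained with 10% biotinylated, detergent-solubilized Sf9 membrane reagent for 1 hour at 4 °C and sorted by FACS into low and high (top ~1%) gates on anti-HA and streptavidin fluorescence. Polyreactivity labels come from the gate of origin.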

Sequence | polyreactivity (PSR sort gate)
QVQLVESGGGLVQAGGSLRLSCAASGSTLSYNAMGWYRQAPGKERELVAAISGRGGSTSYADSVKGRFTISRDNAKNTVYLQMNSLKPEDTAVYYCNRYSRSAYEWEYYSWGQGTQVTVSS | high polyreactivity
QVQLVESGGGLVQAGGSLRLSCAASGSISFSNAMGWYRQAPGKERELVASITSGGSTKYADSVKGRFTISRDNAKNTVFLQMNSLKPEDTAVFYCAADGYDYWGQGTQVTVSS | low polyreactivity
QVQLQESGGGLVQAGGSLRLSCAASGTISPLPAMGWYRQAPGKEREFVAGIDTGAITNYADSVKGRFTISRDNAKNTVYLQMNSLKPEDTAVYYCAADLFLDGSSQYAPNWWPDGWNTYRLLGGYWGQGTQVTVSS | low polyreactivity
QVQLVESGGGLVQAGGSLRLSCAASGRIFFYNDMGCYRQAPGKERELVASISSGTSTYYADSVKGRFTISRDNAKNTVYLQMNSLKPEDTAVYYCATGRPWHYSSATYDYWGQGTQVTVSS | low polyreactivity
QVQLVESGGGLVQAGGSLRLSCAASGNTFEHYAMGWYRQAPGKERELVAAISYSGGSTYYADSVKGRFTISRDNAKNTVYLQMNSLKPEDTAVYYCNARGRASATGRRGRPDPFGYWGQGTQVTVSS | high polyreactivity
PVQLVESGGGLVQAGGSLRLSCAASGFTFPNYAMGWYRQAPGKERELVAVITYSGGSTYYADTVKGRFTISRDNAKNTVYLQMNRLKPEDTAVYYCNARYPGSWYFGQYGGYDYGYWGQGTQVTVSS | low polyreactivity
QVQLVESGGGLFQAGGSLRITCSPSGFIFHGYAMGWYRQAPGKERELVAAISTGTNTNYADSLKGRFTISRDNAKNTVYIQMNRLKPEDTAVYYCNARSADTWYTSRRFYYWGQGTQVTVSS | low polyreactivity
QVQLVESVGGLVQAGGSLRLSCAASGFISYYYAMGWYRQAPGKEREFVAAITSSGGSTRYADSVKGRFTISRDNAKNPVYLQMNSLKPEDTAVYYCAARKARPPFPHPFDYYWGQGTQVTVSS | low polyreactivity
QVQLVESGGGLVQAGGSLRLSCAASGSIFSYYAMGRYRQAPGKEREIVAAISWSGGSTYYADSVKGRFTISRDNAKNTVYLQMNSLKPEDTAVYYCAAELSLSWLVPDVPYYYWGQGTQVTVSS | low polyreactivity
QVQLVESGGGLVQAGGSLRLSCAASGSIFDGNAMGWYRQAPGKERELVASISDSGGSTYYADSVKGRFTISRDNAKNTVYLQMNSLKPEDTAVYYCAKVFVRFYDYYINYWGQGTQVTVSS | low polyreactivity
QVQLVESGGGLVQAGGSLRLSCAASGSTFRVYAMGGDRQAPGKERELVAAITYSGGSTYYADSVKGRFTISRDNAKNTVYLQMNSLKPVDTAVYYCAADGYYGGYNYWGQGTQVTVSS | low polyreactivity
QVQLVESGGGLVQAGGSLRLSCAASGRTFTGNAMGWYRQAPGKERELVAAISTSGTRTTYADSVKGRFTISRDNAKNPVYLQMTSLKPEDTAVYYCAALRKCLYRTYTYDYWGQGTQVTVSS | high polyreactivity
QVQLVESGGGLVQAGGSLRLSCAASGRILKYYAMAWYREAPGKERELVAAIWSGGSTYYADSVKGRFTISRDNAKNTVYLLMNSLKPEDTAVYYCNAEYQWGGYGYDYWGQGTQVTVSS | low polyreactivity
QVQLVESGGGLDQAGVSLRLSCAASGSTFSANAMGWFRQAPGKERELVAAISSGDITYYADSVKGRFTISRDNAKNTVYLQMNSLKPEDTAVYYCAKYTRPTGNVDDGFEYWGQGTQVTVSS | low polyreactivity
QVQLVESGGGLVQAGGSLGLSCAASGSTFRSYAMGWYRQAPGKERELVAAISSAGTTYYADSVKGRFTISRDNAKNTVYLQMNSLKPEDTAVYYCAAKYSYYTYAGDGGLFSWSYGYWGQGTQVTVSS | low polyreactivity
QVQLVESGGGLVQAGGSLRLSCAASGFTFGHYAMGWYRQAPGKERELVAAISIDGGRTYYADSVKGRFTISRDNAKNTVYLQMNSLKPEDTAVYYCAAAVAGRKMGYWGQGTQVTVSS | high polyreactivity
QVQLVESGGGLVQAGGSLRLSCAASGSIFGVYVMGWYRQAPGKERELVAAITRGASTNYADSVKGRFTISRDNAKNTVYLQMNSLKPEDTAVYYCAARQVSVSGHQYGYWGQGTQVTVSS | low polyreactivity
QVQHVESGRGLVQAGGSLRLSCPASGSTFSYYAMGWYRQAPGKERELVASISSTTGSTYYADSVKGRFTISRDNAKNTVYVKMNSVKPEDTAVYYCAADIPPGGGDYWGQGSQVTVSS | low polyreactivity
QVQLVESGGGLVQAGGSIRLSCAASGRTFGYYAMGWYRQAPGKERELVAAISWSGGRTYYADSVKGRFTISRDNAKNTVYLQMNSLKPEDTAVYYCAAQTAGFWYDYWGQGTQVTVSS | high polyreactivity
QVQLVESGGGLVQAGGSLRLSCAASGFTFSSDAMGWYRQAPGKERELVAAITWRGGTTYYADSVKGRFTISRDNAKNTVYLQMNSLKPEDTAVYYCAVDFKRVIRGSRWGDYWGQGTQVTVSS | high polyreactivity
QVQLVESGGGLVQAGGSLRLSCAASGSTFALYPMGCYRQAPGKERELVAGITIDGSTNYADSVKGRFTISRDNAKNTVYLQMNSLKPEDTAVYYCNADSYKYPLLKYRSDYWGQGTQVTVSS | low polyreactivity
QVQLVESGGGLVQAGGSLRLSCAASGSIFLRYAMGWYRQAPGKERELVAAITSSGGSTYYADSVKGRFTISRDNAKNTLYLQMNSLKPEDTAVYYCNRYSYLFPYYWKYDYWGQGTQVTVSS | high polyreactivity

Sequence | polyreactivity (PSR sort gate)
QVQLVESGGGLVQAGGSLRLSCAASGFTFFYYVMGWYRQAPGKERELVAAISQHGGSTYYADSVKGRFTISRDNAKNTVYLQMNSLKPEDTAVYYCAASPVVNRRGTYGYWGQGTQVTVSS | high polyreactivity
QVQLVESGGGLVQAGGSLRLSCAASGFIFKPYDMGWYRQARGKERELVAAISWTGTSTYYADSVKGRFTISRDNAKNTVYLQMNSLKPEDTAVYYCAADFYGGFAHEYWGQGTQVTVSS | low polyreactivity
QVQLVESGGGLVQAGGSLRIICAASGFIFKYYAMGWYRQAPGKERELVAAISSGGSTKYADSVKGRFTISRDNAKNTVYLQMNSLIPEDTAVYYCNADWYWKYDYWGQGTQVTVSS | high polyreactivity
QVQLVESGGGLVQAGGSLRLSCAASGSTFVYYAMGWYRQAPGKERELVARISSGGSTYYADSVKGRFTISRDNAKNTVYLQMNSLKPEDTAVYYCAVLLWVSPLKREFYWGQGTQVTVSS | high polyreactivity
QVQLVESGGGLVQAGGSLRLSCAASGSTFYNYVMGWYRQAPGKERELVAAINWSGCRTYYADSVKGRFTISRDNAKNTVYLQMNSLKPEDTAVYYCAAGYTLPWYKGFDYWGQGTQVTVSS | high polyreactivity
QVQLVESGGGLVQAGGSLRLSCAASGYTVGNNAMGWYRQAPGKERELVARIRTNGGTTYYADSVKGRFTISRDNAKNTVYLQMNSLKPEDTAVYYCNAYRGYEYDYWGQGTQVTVSS | low polyreactivity
QDLLVESAGGLVQAGGSLRLSCAASGRNFPYKAMGWYRPAPGKERELVAAISSGGSTNYADSVKGRFTTSRDNAKNTVYLQMNSLKPEDTAVYYCAVGYSYYPSDEFDYWGQGTQVTVSS | low polyreactivity
QVQLVESGGGLVQAGGSLRLSFAASGRIFTYYAMGWYRQAPGKERELVASISRSGGNTYYADSVKGRFTISRDNAKNTVYLQMNSLKPEDTAVYYCAAVYSRLDYWGQGTQVTVSS | high polyreactivity
QVQLVESGGGLVQAGGSLRLTCAASGSIFRYYAMGWYRQAPGKERELVAAISSNGGSTYYADSVKGRFTISRDNAKNTVYLQMNSLKPEDTAVYYCAALFRRAPGYYWGQGTQVTVSS | high polyreactivity
QVQIVESGGGLVQAGASLRLSCAASGLIFPQKVMGWYIQAPGNERVLVAAISSGTITNYADSVKGRFTISRDNAKNSVYLQMNSLKPEDTADYFCAAEEDKKTFDYWGQGTQVTVSS | low polyreactivity
QVQLVESGGGLVQAGGSLRLSCAASGSTFNRYAMGWYRQAPGTERELVAAISGRGGSTYYADSVKGRFTISRDNAKNTVYLQMNSLKPEDTAVYYCAKLSYLHGTAREFRFDYWGQGTQVTVSS | high polyreactivity
QVQLVESGGGLVQAGGSLRLSCAASVSIFRVYALGWYRQEPGKERELVAAITNGGNTNYADSVKGRFTISRDNAKNTVYLQMYSLKPVDTAVYYCAATLNRYWFRLYYYLGQGTQVTVSS | high polyreactivity
QVQLVESGGGIVQAGGSLRLSCAASGSTFEANAMGWYRQARGKERELVAAISSGDRTNYADSVKGRFTISRDNAKNTVYLQLNSLKPEDNAVYFCAAPTDSYYEFDYWGQGTQGTVSS | low polyreactivity
QVQLVESGGGLVQAGGSLRLSCAASGGTFVSYAMGWYRQAPGKERELVVAITYSGGSTYYADSVKGRFTISRDNAKNTVYLQMNRLKPEDTAVYYCAAPKFSYFSYSPRGKFKYEYWGQGTQVTVSS | low polyreactivity
QVQLVESGGGLVQAGGSLRLSCAASGRIFNSNTMGWYRQAPGKERELVAAITYSGGSTYYADSVKGRFSISRDNAKNTVYLQMNSLKPEDTAVYYCAASYYYGRRYDYWGQGTQVTVSS | low polyreactivity
QVQLVESGVGLVQAGGSHRLSCAASGSIFGFYVMGWYRQAPGKERELVAAISRGGTRTYYADSVKGRFTISRDNAKNTVYLQMNSLKPEDTAVYYCAKYDGGSGTGPRSDYWGQGTQVTVSS | high polyreactivity
QVQLVESGGGLVQAGGSLRISCAASGITFFRNAMGWYRQAPGKERELVATITKSGGSTYYADSVKGRFTISRDNAKNTVYLQMNSLKPEDTAVYDCAAVRRYPVKYVAYDYWGQGTQVTVSS | low polyreactivity
PVQLVESGGGLVPGGGSLRLSCAASGRIFNAYARGWYRQAPGKERELVAAISSRGGSTYYADSVKGRCTISRDNAKNSVYLQKNSLPPEDTAVYYCAAGIYTATGYGYWGQGTQVTVSS | high polyreactivity
QVQLVDSGGGLVDAGGRLRLSCAASGRTFYAYPMGGYRQAPRTERELVAAITKRDGITFYADSVKGRFTISRDNAKNTVYLQMKSLKPEDTAVDYCDATGYVGGIYGHYPRGYWGQCTQVTVSS | high polyreactivity
QVQLVESGGGLVQAGGSLRLSCAASGSIFSYYAMGWYRQAPGKERELVASITYSGGSTYYADSVKGRFTISRDNAKNTVYLQMNSLKPEDTAVYYCAAPLAYEGDYWGQGTQVTVSS | low polyreactivity
QVQLVESWGGLVQAGGSLRLSCAASGITFDGNAMGWYRQAPGKERELVAGISGSGGGTYYADSVKGRFTISRDNAKNTVYLHMNSLKPEDTAVYYCAADTSTSHAYDYWGQGTQVTVSS | low polyreactivity
